We go through ten sequences from a protein production outcome set (Wang et al. 2014).
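Note: failed if final PepcDB status was selected cloned or expressed and not failed if soluble or beyond.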

A short description of this data set: label from the status in PepcDB records.
“MLSKNNFNEKLMQMNNQKAHFSIRKLTIGAASVLIGITFMGINGQTVNADEMTGNTQPEAMQVSTDKSTDATTTQQNDSDSSAQKNAAQTVEVPQNSKQDNTGETSQSTTDKKDTQVQKTESSETKADTAQSQVPPAANQTQKSADQNVENTQSPVASNTTQPKTQNDSKYNVADWGGSLNDETHEYTLNKYNGSDKENIYIPNTEDFIKAGKITDIDKVFITKDLIQNITKNGATSIVIDDQGSEDKNKVYAKGDWSNAFAGSTKLKSVDLSHLDTSQVTSMAGAFNGDTGLNDANLSGWNIQNMTNLSSLFYGANNLYNVDMSGWNFINNPNTNSMFSYADYNLKSVNLKNAKNVTDDILRIYARAIKNSNATTADLSDINLSPNVTSLHGLFSNMPDLKNVNLSGLDISHITDMGGMFSGDSNLESLDLSGLDLSKVTNTNNMFDWVGGKIKSVNITNTKSIPRSILDIYLKALSNTGTTTVDLSGINLSPNVTSLHGLFANMPNLGSANLSGLDISHITDMGGMFFNDTSLKSVNLSGLNLEKVKDLSTMFYGANNLENVDFSNTKFAPDANTNVMFAFADTKLQSVNINGTKNITREVLDAVIRAAKNSNATTLDLSGVSFSPSITSFNNLFSNMPNIESIDLTGWDTSHITDMSYMFFNDPKLKIIKGLEDFNTSNVTNMAYMFAAFNNPTTDNYDPKGLESLGHLTKLDLSNWDTSNVTNMLYMFAGQTNLTSLGDLSKWNTSKVTNMAYMFYDLKNIDDGKLDLTGWDTSNVTDMSYMFFNMFLQKDLSFVNDWNTGKVTDMSYMFANDKNLEKLDLSKWDVSSVGLKHTEQNYSLAMMFAGDTSLTTVGDISHWNTKNVHDTRQMFYNTPKLTNIDLSGWNTGKLQIAEGMFNSSGAKQINLDNWDLSNIKRITPAGYVEGKAGVGVLRGVENMFKNLTNPAVISMNKVILPDARNAFEINDFEGNKAIVVIANGQNGEALQDLLKINNQTWTDKSGNNVTGRQNSDYVTYVRADDNSNQIGQRGLNFIFTNLDDLHQYFNQVTNADNVKNDIGELSHDWDAQQDTDNNIVKITLRLSPASSYDPYSENIHAEKDGNILADLMTSKYQLHIVAPTNTTETKKPTRTIIIENPDGTTSTKEQTVEFKREVTKHVDGTEEATSWTPTSGEWTKFDVPQIAGYDSYVDGTQSKSVASEPVNKDTENVTVVITYKSNAVNPEPIIPDPVKPEVDPDKKDPQEPKTDPVTPTPDEPENPKPEKKPSNPDKRKDDNSKVVKPHGENKAAKKNHSSVEHKKTGTHTIKLSHRVAPKGTQATNGSKKSTSTVNKAADNNKNTLPQTGEKKSNAGLIGLALIALASLGLIDRKRRD”: the protein production entry is on record as “failed”.
In the case of “MLSNRFNRWTVAAIALMGTAIATVPGRVLAQTPDHPSDTAAQFPTRNDLKSLTTSGSYLAARHASVERDATSAAAFYRSALRTDPKNNELLDRAFISSVADGDIDEAVKLAERVLTIDKTNRVARLVVGVHDLKMKKYATAQTNINQSIRGPITDLVATLLSGWAAYGAGDSKGAVATIDKLAGPEWYPLFKDLHAGMILELAGKEKDAGTRFERAYKLDDSMLRVTEAYARWLSRNKDAAAATTVYQAFDKKLARHPLIVEGLRDTKAGKKLPPLVDSAQAGAAEALYGIGATLTRRGGEDLALVYLQLSLYLQPTHPLALLSLADLYESVKRPQMAIKVYERVPSTSPLKRNAQIQLAIDLDSADRTDEAIKILKGVTSEDSKDLEAIMALGNIERGRKKFGDCGATYSQGVDVLPAGNDKANSVWYYYRGICEERSKQWAKAEADMKKALELQPDQPHVLNYLGYSWIDQGVNLDEGMKMIKRAVEQRPDDGYIVDSLGWAYYRIGNYEEAVKNLERAIDLKPEDPTINDHLGDAYWRVGRTLEAKFQWSHARDLKPEPDELPKIEAKIANGLTEDNSNSSAAQAEKKKDDGKGG”, the protein production entry is “failed”.
On to “MLTDPFFYLVAIPAVILLGLTKGGFAGIGVVAVPMMTLAVSPVMAASIILPILLVQDVVSVWSFRKTWDKAILVLMLPAAAVGIFLGWALAALVEEAAVELAVGAISVVFALQRLWAEHALRAADSIEAGPARPWLGVLCGATAGFTSQIAHAGGPPFQIYVLPRGLPRDVFIGTSAIFFGVVNWMKVPAYLALGQLTPQALATAGVLLPLAIASTWAGVWLVRRVPAEGFYKVIYVLLVLVGGKLMFDGARGLLT”, for which the protein production entry was “failed”.
Next, “MLTFAPLNFLAIGVGATLGAWLRWVPGLRLNGAGWPWGTLTANLVGGYLIGVMVALIASHPEWPAWIRLAAVTGFLGGLTTFSTFSAETVDMLERGVYATAAAYAGASLAGSLAMTGLATVRLLLR”: “failed”.
Next, “MLTFFIGDLLPIIVIMLLGYFSGRRETFSEDQARAFNKLVLNYALPAALFVSITRANREMIFADTRLTLVSLVVIVGCFFFSWFGCYKFFKRTHAEAAVCALIAGSPTIGFLGFAVLDPIYGDSVSTGLVVAIISIIVNAITIPIGLYLLNPSSGADGKKNSNLSALISAAKEPVVWAPVLATILVLVGVKIPAAWDPTFNLIAKANSGVAVFAAGLTLAAHKFEFSAEIAYNTFLKLILMPLALLLVGMACHLNSEHLQMMVLAGALPPAFSGIIIASRFNVYTRTGTASLAVSVLGFVVTAPLWIYVSRLVS”: “failed”; “MLTGLKIAVIGGDARQLEIIRKLTEQQADIYLVGFDQLDHGFTGAVKCNIDEIPFQQIDSIILPVSATTGEGVVSTVFSNEEVVLKQDHLDRTPAHCVIFSGISNAYLENIAAQAKRKLVKLFERDDIAIYNSIPTVEGTIMLAIQHTDYTIHGSQVAVLGLGRTGMTIARTFAALGANVKVGARSSAHLARITEMGLVPFHTDELKEHVKDIDICINTIPSMILNQTVLSSMTPKTLILDLASRPGGTDFKYAEKQGIKALLAPGLPGIVAPKTAGQILANVLSKLLAEIQAEEGK”: “failed”; “MLTGNKPAVQRRFIGLLMLSVLVAGCSSNPLANFAPGYPPTIEPAQPAVSPPTSQDPAGAVRPLSGHPRAALFDNGTRQLVALRPGADSAAPASIMVFDDVHVAPRVIFLPGPAAALTSDDHGTAFLAARGGYFVADLSSGHTARVNVADAAHTDFTAIARRSDGKLVLGSADGAVYTLAKNPAVDPASGAATVASRTKIFARVDALVTQGNTTVVLDRGQTSVTTIGADGHAQQALRAGQGATTMAADPLGRVLIADTRGGQLLVYGVDPLILRQAYPVRQAPYGLAGSRELAWVSQTASNTVIGYDLTTGIPVEKVRYPTVQQPNSLAFDETSDTLYVVSGSGAGSRFIEHAAGTR”: “failed”.
Next, “MLTLIKRTVLAAGLIGTTLGAAAQPPRAYPLKDFFRNPERGYFRLADDGKTLGFMQPVSIDGQPPRMNIYVQALADGVPAGEPRKLTSETARDISNFFWKGDDTVLYQKDFGGDENFHVLAVNARTGQVADLTPYEGVRASIEDDLPDDPDHVLISHNRRDPQVFDVYRVNVRTGAAELVAQNPGNVVGWQTDHAGKVRAAITSDGLNTTLLYRDDEAAPFRPLITTDYRVSVSPAFFTFDDRKLYALSNRGRDKLALVVIDPATPDVEQPVFEPDEVDLDAAGYSRKRKVLTVASYQTDKPRHRFFDAETEALYARLARALPGYDFALQGWNRDEDTFIVAAYNDRTPGSRYLYDARRDSLHKLADINPAIPEADMAPVRPVSYQSRDGLTIHGYLTLPAGRAPRNLACIVNPHGGPWARDGWGYNPEVQFLANRGFCVLQMNFRGSTGYGRKFWEAGFGQWGLKMQDDITDGVQWLIDQGIADPRRIGIYGGSYGGYATLAGVAFTPDLYAAAVDYVGVSNLFTFMNTIPPYWKPLLAKMQDMVGDPVRDKARLEATSPALHVDRIKTPLFIAQGAKDPRVNKAESDQVVQALRQRGVEVEYMVKDNEGHGFHNDENKFEFYAAMEKFFTEHLKP”: “failed”; “MLTRYLAIAAIALALTGLGGCSVNPVTGEKQLSLISENQELALGAEQYTPTQQTQGGRFYIDPELSIYVRDVGQKLARVSDRPDLPYEFVVLNNSVPNAWALPGGKIAINRGLLVELEDEAQLASVLGHEIVHAAARHSVQRMQQGMLISAGVAGLGFALSDNEWAGLIMGGAALGAQLALAQYSQGDELESDAYGIRYMKEAGYDPQAAVELQQLFLKLSEGRQSGWLDGLFATHPPSAKRVQENQELVQNIGSGGYRGRDVYQRRIAKLKELQPAYDAHDEAMKLASEGKFEAALDQVNKAIKLEPREAMLFALRGRIYRGMEQPEKAKADFDKAVSLYPEMFQYQLYSGLNELELNNLGKAKTHLEKANQVVPTSIAYLRLGDIARQQGQRSEAVAYYSTAAEAGGDVGAEAQRKLAELSN”: “failed”; “MLTVKQRETDCPMDLNTLISQYGYAALVIGSLAEGETVTLLGGVAAHQGLLKFPLVVLSVALGGMIGDQVLYLCGRRFGGKLLRRFSKHQDKIERAQKLIQRHPYLFVIGTRFMYGFRVIGPTLIGASQLPPKIFLPLNILGAFAWALIFTTIGYAGGQVIAPWLHNLDQHLKHWVWLILVVVLVVGVRWWLKRSGKKKPDHQA”: “failed”.
